Assay: label from the status in PepcDB records

Sequence | protein production
MIWILASLIAGIALRAWSVFILPLAYIIGRRNRDLGLLTYFLYGVLLVREVFVRDLISEEAFVSLGLLVPSVLALREIGEEFRVDVRGLVGLGVMSLGFIYKPALVLGVIITGISSIPWIELSILTLLFLVSYVAREHQELVVVGFVLVMSILLAKPIERREMRVKSGRGF | failed
MIWIVGSGTCRGQTTERAKEIIERAEVIYGSRRALELAGVVDDSRARILRSFKGDEIRRIMEEGREREVAVISTGDPMVAGLGRVLREIAEDVEIKIEPAISSVQVALARLKVDLSEVAVVDCHAKDFDAELTELLKYRHLLILADSHFPLERLGKRRVVLLENLCMEGERIREGNADSIELESDYTIIFVEREVME | not failed
MIYEGAVFRPPSEASSLILQVSLGCRHNQCTFCSMYKGKSFRIRSIEEIMDMIDAGSKAYPHMERIFLADGDALAVETDVLSNVLETLYQRFPRLKRVGIYGGPKDILEKSPAELARLKEQGLSIVYLGVESGSGLILNLIRKGVTPEEMINAGQKVVASGLKLSCTIILGLGGRERSPEHAVETGKVISAINPHYLGALTLMLAPDAPLTQKIKSGEFTPLNKWESLIELELMVQGLNLKDCLFRSNHASNYLPLKAHLPHDKATLLSTLKEVIEENREEVLRPEYWRGL | failed
MIYEPAEDSELLLEAALRELKPDDEVIEVGAGSGFVAERLKGKCKCILTTDISPFAAMELRRKGLDVVMTDIAKGIRKKFSLVLFNPPYVELEDELRRGDWLDVAIDGGKKGVKVIKKFLDSLDEIMAERGRAILIASSQNEPDVFDLIDERGFRYEIVGERGLFFEKLFAIKIWKE | failed
MKADILLVSHSKMITDGIKEMIEQMNASEEITIHSLGGTSDGSLGSDPMKIIDTINEADSDREFLIFADLGSAVLSSELAFDMLEEDQQKHYHLVDAPLVEGAFASAITAGVSDDLTQILAEAQNAGKKGWN | not failed
MKAEFEEASGLTAGNPVRMKGVNVGSVESIRLNQETQTVRARLRIEEGIRIPEGSHAKVAGFSGIGGVRISILPGPRENPPLPPDATLSAPPEGSVFDRLTDQAPALANKADSVLTSTNTTMSALSTQLQDPDSDLRQALTSAKNITGDLESVTEAEKETLRALLQNLQSVSSDLDTFMGENGDSLDVAVRRLNESLDRLNRGLASLEQTSATLDTVATKLNEGDGTAGRLLNDPSLYLRLDSAAARTNTLLQDFQRDPGRYLNDMTLVKVF | failed
MKAGYETMTPEELRRLTATHDEADYEIVDVREPAEYRQGHLPGAKHIPVGEVEARLDELVPGRTHIFYCRSGARSRAALTFAVESGLTLGPLYDLAGGILAWDGHTVPDEPRLATFAHVSDMRSLLLRAIDMEKAVHGLYTRVRAASGRPVVCELMDRLVGVEVAHARVIYRELRKWWAAADGELPPFETLFETLEGRVLEGGRSVDELEPWIRSASTGDCHEVADLALELEFAAYDLYRTLADEAVQGSGLGEDAARVFLDLASQEKAHARMIVAAMARFGEEGADATA | failed
MKALFFTRMFTLMVSCLMYLSIVKEDNWFGYVFIAAGAAMYAANHVLLTKETNAIWFCLIDIAIGFSFGFIFPGTGLFIIMLCPVAVAFFLRGFPKRTAWSVLCLSSILFLTVLIRTYAMFGNEFVIDHLTSMTFVVFCGVVGKLIRKLLDAQDTAKQQFQELTESHLALSAAHQELHLYAKQVEELTAIYERNRMAREIHDTVGHKMTALLVQLQLLREWQKRDSQKADETVGVCETLAREALDDVRLSVRTLQTENDPSLIESLKQLTEDFCKNAGVTTEFAVSGDPAIIPLSLHPTLIRTVQEALTNAKRHGGAAACSIQLACTTDSISLVIKDDGKGNPEAALGFGLLNMKKRAAEHGGMIRFESERDQGFTVNAEFSLANKKWSFGPVQQKESLS | failed
MKALHFGAGNIGRGFIGKLLADAGIQLTFADVNQVVLDALNARHSYQVHVVGETEQVDTVSGVDAVSSIGDDVVDLIAQVDLVTTAVGPVVLERIAPAIAKGLVKRKEQGNESPLNIIACENMVRGTTQLKGHVMNALPEDAKAWVEEHVGFVDSAVDRIVPPSASATNDPLEVTVETFSEWIVDKTQFKGALPNIPGMELTDNLMAFVERKLFTLNTGHAITAYLGKLAGHQTIRDAILDEKIRAVVKGAMEESGAVLIKRYGFDADKHAAYIQKILGRFENPYLKDDVERVGRQPLRKLSAGDRLIKPLLGTLEYSLPHKNLIQGIAGAMHFRSEDDPQAQELAALIADKGPQAALAQISDLDANSEVVSEAVTAYKAMQ | failed
MKALVVSDDINFLKQACTLVNGKAEYDAVYVGEGRVSGVGASTLYTVKKGTPYDAVADGILEIMGNYDIIVAGSTEFGREVAGYIAGKTGYYAATEIFSLEFSNGKAKTKRFFYGGKTVIEEESDAKVFTVAPGVIEAKEFESKPEEKDLPIKPSKVRVNKVVPKNAGGVR | failed
MKANLERVPIRIGSSWRYKKIDGVEKNCHWHFHNEYELVLFRKNNAKGMVGHFERVIEKNTLWLIPPKMPHAIELLEEKELQCESHIIWLPKEWVENMIFSCTELRRMGELFKRSSNGLCFSTSTAEKVYQLIEKLFKDSILDDLGYLIQILGCLCSDKETRPLQLFSKQEASDKEGKEK | failed
MKASIEQLEPYVPEKPLATLQAELGLTELVRLSANENPYGTSPKVATAVKNWDFTQSNRYPDADAQELRQAVAQQQGIDPNSIVFSVGLDEMIVMLSRTFLATNDQVLVSAPTFSEYGLHAEIEGGQLISVPTLPNDHVNFEGLMKAITPHVKMVWLCNPNNPTGTVESLAAIEAFVQQVPPETMVLIDEAYIDFTPGAAQVTAMQLPAKYPNVVVMRTFSKAYGLANFRIGYAVFNTKYAATMQTIRLPYNVNSLAQVAALAAIDDPNFVKQTVQKNATERAKWMAFFDDQGVTYDQSGANFIFFKYPSATQLADYLVHHGYLIRTGLRPGWLRLTVGTANDNQQLQQLIREFKA | failed
MKAVTTSPSDPPDPFDPLDPVDPLASTKPEVDVVLPCLDEADALPWVLARIPPGWRALVVDNGSTDGSAEIARRLGATVVPETRRGFGAACHAGLTAATADIVCFCDCDGSLDPSLLVPFVREVRDGAADLVLGRRRPHGRGAWPAHARAGNLALARMLRRRTGLRLHDLGPLRAARREPLLALGLTDRRSGYPLQMVVRAADAGWRIAEHDVPYLPRTGVSKVTGTWRGTWQAVRDMSRVLAEPAQDGPPESGSLSSSQGGSSQLEHHHHHH | failed
MKAYALVGGPTDLWLHDIKKQLTEAKQNNDLIFGVDRGALFLEELGIIPDVAIGDFDSLQAKDLSRIEKTVKDIRYSNPIKDWTDSEIMVQTVFKDYLADKLIILGASGGRIDHFLINLLMWLNPPINQFAQRVEIIDNHNSIVFFNPGVHIIKKKPDYPYIGFATLSETEDFNISGARYDLNDYSSTYPRVFSSNEFLPNSDYFEISLKKGMIAAIYSKDINRFHNLLEHHHHHH | not failed
MKAYLGLYTARLETPARSLKEKRALIKPALERLKARFPVSAARLYGLDAWGYEVVGFTLLGNDPAWVEETMRAAARFLAEAGGFQVALEEFRLEAFELDGLL | not failed
MKCRGHKNSYFCQDSNEIKSANSNSPLCGDHSFFEMATKQRKGSRSSGRNTSSANTRKGGNFLRRIFITPIRDTFSRDKVGFVFGAILLAIALYTTIAIGSFFVHGGVDQSVVRDAPVSDILLGRAPVANLCGIRGAVWSEWLMNGLFGFGTLFLLFCVFSLSLKLMGVVKRISVVKRLIFCGVMTFWTSLAAAFIYKLSGLEGFLRWGGMHGQEWTLFLERNIGKAGLIIVLLVLAVIIAVVVRSECMGFFRRLLGLSWISIPKLPKKERKNNHDESENESLGNGYDTGESENLSGYLNNSEYEDGPAGESADDPDDYIPPHKEEGENDSSQSIQMGSMTVELAQEEEKADEALLAEIKTDPRMDLASYKFPSVDLLTQYDLQQPPIDMNEIEENQKRIIATLDSFKIHVTPIKATVGPTVTLYEVAPDSGIKISRIRNLEDDIAMSLKAVGGIRIIAPMPGKGTIGIEVPNRKPQTVSMYSVLTSKKYQESDMDLPVALGKTITNEVFIFDLCKMPHLLIAGATGQGKSVGLNAMITSLLYKKHPAELKFVLVDPKMLEFAVYEAIERHYLAKLPDEDRAIVTDMTKVVPTLNSLCIEMDNRYRMLTEARVRNIKEYNDQIISGKLSRLHGHKFLPYIVLIVDEFADLIMTSGKEVERPITRIAQKARAAGIHMVVATQRPSTDIITGIIKANFPARIAFKVFSMIDSRTILDQPGANQLVGRGDMLFYQGKDTVRLQCAFLDTPECEAVTHHISLQESYTSAYELPEYVPEGEEGGPKAFNPQEKDPLFEEVARMVVNSQQGSTSNIQRKFNIGYNRAGRLMDQLEGAGIVSPQDGSKPRQVLIQDEMSLERLFETLR | failed
MKDIIRFILRLVQNPIVLAILWFGVAIRGFWVSWTEGLANNYLIFSRSFFHALEQTPLYVEYPKEYFDLFLYGIPFTLLIAPFSIMPTMVGSALWSLCNALLLYFAIKKLEFEKWKTAIIVWLSYNGLYLSVVTQQYNAAVAAFILFTFILVERKKDFWAALMIVLGTLTKIYGIVGLAFFLFSKRKLYFLWGILFWAFVLFVVPMFYTSPQYVFDSYKEWVSILVVKNDVNELSFYQNISLLGMVRKITHAVEYSDMWLIIPGIVLFLLPYLRIGQYENRNFRLSFLASVLLFMVLFSTGTEECGYVGALIGVGIWYVSTPTYKKSFVLNTCLLLFCFALTAASSSSILFSKHFRTEYITSFALKALPCAIIWFKIIWEQLTQDYTSRTPTPFLHKKDDERIDVILPCYNPHEGWEQQLIEKHKELEGMLNGYNIRFIVVNDGSKRGFTEEAVLRLTNNLPNTIIVDNKINQGKGAAVRDGIAHSDSELALYTDYDFPYKIESVCQVIKYLEEGYDVVVANRNHTYYSQLSTRRKLASHASRFLNFMLLGLTHTDTQGGLKGFNCKGKAFLASTRIKQFLFDTEFIYKASLDDTTFIKEVPVDLRGEVMLPDMKKGVFVNELKNLLMICWRG | failed
MKDNPISPTIPLDQDGVHHGFLKLPYSRDDSAWGSVMIPITVIQNGAGKTALLTGANHGDEYEGPVALQELAATTRAEDVTGRLIIVPYFNYPAFRASARTSPIDRGNLNRAFPGRPDGTVTQKIADYFQRTLLPMADVAVDFHSGGKTLDFVPFAAAHILEDKVLQDACFAAMQAFNAPYSVQLLEIDSEGMYDTAVEEMGKVLVTTELGGGGMSTARSNAIAKKGLRNVLIHFGILQGEMQIDPSVTLDMPDGDCYLFSEHDGLFEIMIDLGEPVQEGDLVARVWSPDRTGEAPVEYRARRSGVLISRHFPGMIKSGDCAAVIGVVEG | not failed
MKDPRDFVPEDLSDLETAMLEMAEKDIRKAYTITDKQERYAALDALKTEIINKFMPETEEDCKFSVDQIATVFKQLQAKIVRSNILDTKKRIDGRDLSTVRPIQSEVGILPRTHGSALFTRGETQAIVVATLGTGEDEQYIDSLTGLEHHHHHH | not failed
MKDSIDFGNMEIPRLFRKLLIPTVLGMVFSAVFVITDGIFVGKGIGSDALAAVNITAPLFMITTGIGLMFGVGASVVASIHLSQGKRKVASINITQALAFSALLILVLSALCCYFAEPIGRLLGSSERLLPLVVEYMNWYVPFLVFYLLLSAGMFYIRLDGSPNYAMMCNAVSAIINIILDYVFIFQLGWGMMGAAFATSLGTMVGGLMTLIYLLRFSRNVGIYRIKLSRKSMRLTCRNIGYMIRLGSSAFISEASIASMMFLGNYVFISHLGESGVAAFSIVCYFFPIIFMVYNAIAQSAQPIISYNFGQQNPGRVARTIRLALKTALGCGIFFFAATLVFNHQIVGLFIDKSYQAYDIAVNGIPYFAVGYLFFALNIVGIGYYQSIERARRATVITLFRGTLFMLAGFLLLPPVLGVRGIWLAVPLAELLTLLLIIGIYLKDSFAVRR | failed

From a protein production outcome set (Wang et al. 2014)
